Experimental data: the supplement of paper PMC9170038

Test system: MS2 coat protein
Assay: apparent KD of MS2 coat protein; designed switch direction (-1 OFF switch, 1 ON switch): -1; higher = weaker reporter binding
How it was run: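 Designed RNA switches sharing common flanks were transcribed on Illumina chips by stalled E. coli RNA polymerase. They were titrated with SNAP-549-labelled MS2 coat protein, from 0.7 or 1.5 nM doubling to 3 µM, in Tris-HCl pH 7.5 buffer with KCl, MgCl2, BSA, DTT, tRNA and Tween-20. Titrations ran without input, with 200 uM small-molecule ligand, or with an oligonucleotide input. The apparent KD of each design is the median over its clusters, after curve-fitting of normalised cluster fluorescence.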

[1] = Eterna round: R95, input ligand: microRNA oligo, concentration not stated
[2] = Eterna round: R95, input ligand: FMN 200 uM
[3] = Eterna round: R95, input ligand: none
[4] = input ligand: microRNA oligo, concentration not stated

| Sequence | apparent KD of MS2 coat protein [1] [nM] | apparent KD of MS2 coat protein (input ligand: FMN 200 uM) [nM] | apparent KD of MS2 coat protein (input ligand: none) [nM] | also measured |
| --- | --- | --- | --- | --- |
| CAAUUCUGAGGAUAUCGAUUUUUGUACAUGAGGAUCACCCAUGUCCUUUUUAUUUAAUCCCGAGAAGGCAGUGUAU [JR_E5_Sub097] (puzzle: Exclusion 5) | 23.8 | – | – | – |
| CACAAGCUUUUUUGAUGCAUUUUAGUGGGUGUGGGUUGGACAUGAGGAUCACCCAUGUUUAUGAAGCUCGAUCUUUU [JR_SV3TOV2_Sub081] (puzzle: Sensor v3, turn-off variant 2) | 170 | – | – | apparent KD of MS2 coat protein [2]: 92.7 nM; apparent KD of MS2 coat protein [3]: 124 nM |
| CACAAGCUUUUUUGUUGCUUUUUAGUUGGUGUGUGAUUUACAUGAGGAUCACCCAUGUUAUUGAUGCUCGAUCUUUU [JR_SV3TOV2_Sub082] (puzzle: Sensor v3, turn-off variant 2) | 143 | – | – | apparent KD of MS2 coat protein [2]: 71.1 nM; apparent KD of MS2 coat protein [3]: 97.3 nM |
| CACAGACAUGAGGAUCACCCAUGUUAGGAUAUGGAUAGCCUGCCAAGAAUAGGCGCCUCCAGAAGGAACUGGGA [Eternabot (Original) Solution 36] (Eterna round: R97, puzzle: Exclusion 1) | – | 141 | 61.1 | – |
| CACCCUGAUGUCAGGAUAUGCGCGUCGCGCCUCGAGCAGAAGGGACAUGAGGAUCACCCAUGUUGUCUCUUGGG [Orisvedixe] (puzzle: Brourd's mod of Exclusion 4) | 44.5 | – | – | – |
| CACCGGGUAGGAUAUACUUGAGGAUCACCCAAGUGGGAACCUACUCGGUGGUCCUUAAGUAGAAGGACCAACGG [Ex 2] (Eterna round: R97, puzzle: Exclusion 3) | – | 11.5 | 11.9 | – |
| CACCGUAACAGAGGAUAUCAAACAUGAGGAUCACCCAUGUAAUAAAUGAGAAUUUCGAAUGUACCUGAGAAGGCUGAAACCGGC [Ostricism 83 - Jieux - Exclusion NG 2] (Eterna round: R96, puzzle: Exclusion NG 2) | – | – | – | apparent KD of MS2 coat protein [4]: 25.9 nM |
| CACCGUUAGGGAGGAUAUCGUACAUGAGGAUCACCCAUGUAAUAAAUGAGAAUUUCGGAUGUAUGCGAGAAGGCCCAAAUCGGC [Ostracism 42 - Jieux - Exclusion NG 2] (Eterna round: R96, puzzle: Exclusion NG 2) | – | 36.8 | 48.4 | apparent KD of MS2 coat protein [4]: 35.8 nM |
| CACCGUUAGUGAGGAUAUCGUACAUGAGGAUCACCCAUGUAAUAAAUGAGAAUUUCGGAUGUAUGCGAGAAGGCACAAAUCGGC [Ostracism 40 - Jieux - Exclusion NG 2] (Eterna round: R96, puzzle: Exclusion NG 2) | – | 37.1 | 45.2 | apparent KD of MS2 coat protein [4]: 34.7 nM |
| CACCUCGUAGCAGGAUAUUAGAGCUUCCGCAAAUGAGAAGGGCUACGAAACACUUGAGGAUCACCCAAGUACCGUGGUCCUCUA [Mutated MS2 EX1.11] (Eterna round: R96, puzzle: Exclusion NG 1) | – | 19.7 | 22.3 | apparent KD of MS2 coat protein [4]: 14 nM |
| CACGUCUGAGGAUAUCGUUUUUUGUACAUGAGGAUCACCCAUGUCCAAUUUUGUAUAUUACGAGAAGGCAGUGGAA [JR_E5_Sub090] (puzzle: Exclusion 5) | 12.3 | – | – | – |
| CACUUGGUAGGAUAUGAAGGGAGGAACAUGAGGAUCACCCAUGUCCUGGAAUCCAGUCCGUCAGAAGGACCUGAGC [Eternabot (L1) Solution 44] (Eterna round: R97, puzzle: Exclusion 5) | – | 24.4 | 21.6 | – |
| CAGAAACAUGAGGAUCACCCAUGUGAGGAUAUGAAAAAGAAAAGAAAAGAAAGAAGAAUCAGAAGGCACAAAGA [salish99-ex1_r3_085] (puzzle: Exclusion 1) | 23.9 | – | – | apparent KD of MS2 coat protein [2]: 31.3 nM; apparent KD of MS2 coat protein [3]: 31.8 nM |
| CAGAAGCAAGGAUAUACAACGGGCCACAGAGCGAGAGGGCAACAUGAGGAUCACCCAUGUAGAAGGUGCGUAAC [Timaina] (puzzle: Exclusion 2) | 97.4 | – | – | apparent KD of MS2 coat protein [2]: 47.5 nM; apparent KD of MS2 coat protein [3]: 74.4 nM |
| CAGCCUCUUGUGAGGAUAUUCUGCUAAGCGAGGCGGAAGAAGGUACAUGAGGAUCACCCAUGUUGGCGGAAUAA [Eternabot (Original) Solution 21] (Eterna round: R97, puzzle: Brourd's mod of Exclusion 4) | – | 167 | 37.6 | – |
| CAGCUGAAUGUGAGGAUAUGUCGAGCUUCGGCUCGAUAGAAGGCACAUGAGGAUCACCCAUGUCUCAACAGCUG [BmEx4/2-C1] (Eterna round: R97, puzzle: Brourd's mod of Exclusion 4) | – | 166 | 35.1 | – |
| CAGGAUAGAGGAUAUACAUAGAUACAGAUUCAUGUAAUCCUACAUGAGGAUCACCCAUGUAGAAGGCUAUCCUG [Fiskers Ex 2 - 16] (puzzle: Exclusion 2) | 15.4 | – | – | – |
| CAGGAUAGAGGAUAUACAUAGAUACAGAUUCGUGUGAUCCUACAUGAGGAUCACCCAUGUAGAAGGCUAUCCUG [Fiskers Ex 2 - 23] (Eterna round: R96, puzzle: Exclusion 2) | – | 82 | 587 | apparent KD of MS2 coat protein [4]: 392 nM |
| CAGGAUAGAGGAUAUACAUAGAUACAGAUUCGUGUGAUCCUACAUGAGGAUCACCCAUGUAGAAGGCUAUCCUG [Fiskers Ex 2 - 23] (puzzle: Exclusion 2) | 210 | – | – | – |

| Sequence | apparent KD of MS2 coat protein [1] [nM] | apparent KD of MS2 coat protein (input ligand: FMN 200 uM) [nM] | apparent KD of MS2 coat protein (input ligand: none) [nM] | also measured |
| --- | --- | --- | --- | --- |
| CAGGGUAGAGGAUAUACGUAGGUACAGAUCCGUGUGAUCCUACAUGAGGAUCACCCAUGUAGAAGGCUAGCCUG [LRO-Excl2-06] (puzzle: Exclusion 2) | 332 | – | – | – |
| CAGGGUAGAGGAUAUACGUAGGUACAGAUCUGUGUGAUCCUACAUGAGGAUCACCCAUGUAGAAGGCUAGCCUG [LRO-Excl2-07] (puzzle: Exclusion 2) | 305 | – | – | – |
| CAGGUCUGAAAGGAUAUCCACGCCUGCGGGCCAGGAGAAGGUUCGACUUGAGGAUCACCCAAGUGCCGAGUCCA [Ervezaar] (Eterna round: R97, puzzle: Exclusion 6) | – | 33.2 | 20.6 | – |
| CAGGUGUUAGGAUAUCGGAGAUCGAGACCGACGGGAUGAGCCGAGAAGGAACAUGAGGAUCACCCAUGUAGGUG [JR_Exclu4_Sub034] (Eterna round: R96, puzzle: Exclusion 4) | – | – | – | apparent KD of MS2 coat protein [4]: 304 nM |
| CAGGUGUUAGGAUAUCGGAGAUCGAGACCGACGGGAUGAGCCGAGAAGGAACAUGAGGAUCACCCAUGUAGGUG [JR_Exclu4_Sub034] (puzzle: Exclusion 4) | 400 | – | – | apparent KD of MS2 coat protein [2]: 166 nM; apparent KD of MS2 coat protein [3]: 414 nM |
| CAGUACUGAGGAUAUACAUGAGGAUCACCCAUGUCCCAAAAGUAGGAUACUACUAUUAGUAGAAGGCAGUACUG [Fiskers Ex 3 828 mod 25] (Eterna round: R96, puzzle: Exclusion 3) | – | 498 | 46.1 | apparent KD of MS2 coat protein [4]: 43.2 nM |
| CAGUACUGAGGAUAUACAUGAGGAUCACCCAUGUCCCAAAAGUAGGAUACUACUAUUAGUAGAAGGCAGUACUG [Fiskers Ex 3 828 mod 25] (puzzle: Exclusion 3) | 38.9 | – | – | – |
| CAGUACUGAGGAUAUACAUGAGGAUCACCCAUGUCUUAAAAGUAGGAUACUACUAUUAGUAGAAGGCAGUACUG [Fiskers Ex 3 828 mod 24] (Eterna round: R96, puzzle: Exclusion 3) | – | 38.5 | 17 | apparent KD of MS2 coat protein [4]: 12.3 nM |
| CAGUACUGAGGAUAUACAUGAGGAUCACCCAUGUCUUAAAAGUAGGAUACUACUAUUAGUAGAAGGCAGUACUG [Fiskers Ex 3 828 mod 24] (puzzle: Exclusion 3) | 12.6 | – | – | – |
| CAGUACUGAGGAUAUACAUGAGGAUCACCCAUGUGAAAAAGCUACGAAAGUAGCAAAUGUAGAAGGCAGUACUG [Ex3: 806] (Eterna round: R96, puzzle: Exclusion 3) | – | – | – | apparent KD of MS2 coat protein [4]: 29.9 nM |
| CAGUACUGAGGAUAUACAUGAGGAUCACCCAUGUGAUCUGGUGCACGCGUACGUGUACGUAGAAGGCAGUACUG [JL 3.27 m4] (Eterna round: R97, puzzle: Exclusion 3) | – | 1280 | 121 | – |
| CAGUACUGAGGAUAUACAUGAGGAUCACCCAUGUGUCCCUGCUAGGAAACUAGCAAAAGUAGAAGGCAGUACUG [Fiskers Ex 3 828 mod 3] (puzzle: Exclusion 3) | 21.3 | – | – | apparent KD of MS2 coat protein [2]: 298 nM; apparent KD of MS2 coat protein [3]: 21.2 nM |
| CAGUACUGAGGAUAUACAUGAGGAUCACCCAUGUGUCCUAGCUAGGAUACUAGCAUUAGUAGAAGGCAGUACUG [Fiskers Ex 3 828 mod 7] (puzzle: Exclusion 3) | 19.8 | – | – | – |
| CAGUACUGAGGAUAUACAUGAGGAUCACCCAUGUGUCUAAAGUAGGAUACUACUAUUAGUAGAAGGCAGUACUG [Fiskers Ex 3 828 mod 20] (puzzle: Exclusion 3) | 11.3 | – | – | – |
| CAGUACUGAGGAUAUACAUGAGGAUCACCCAUGUGUUCCAGCUAGGAGACUAGCAUAUGUAGAAGGCAGUACUG [jl-ex3-4.03 salish99 mod] (Eterna round: R97, puzzle: Exclusion 3) | – | 338 | 326 | – |
| CAGUACUGAGGAUAUACAUGAGGAUCACCCAUGUUCCAAGGCUAGGAAACUAGCAAAAGUAGAAGGCAGUACUG [828 mod 2 m3] (Eterna round: R97, puzzle: Exclusion 3) | – | 472 | 24.5 | – |
| CAGUAGGCAGGAUAUACAUGAGGAUCACCCAUGUGAUUUAGUGCACGCGUACGUGUACGUAGAAGGGCCUACUG [JL 3.27 m7] (Eterna round: R97, puzzle: Exclusion 3) | – | 91.8 | 17.9 | – |
| CAUACACAUGAGGAUCACCCAUGUGAGGAUAUGCGUACGUUGUCAGUAGGCGACGUGCGCAGAAGGCGCGUGUU [Mat - Mod of JL D90] (puzzle: Exclusion 1) | 46.3 | – | – | – |
